Experimental data published in article PMC10619424.

Biological target: haloalkane dehalogenase DmmarA from Mycobacterium marinum M (Mycobacterium marinum M)
Assay: SAXS; SEC-purified DmmarA at 2, 4.5 and 8.7 mg/ml in 50 mM sodium acetate, 10 mM Tris pH 8.5; scattering curves fitted to the crystallographic monomer and dimer (CRYSOL), ab initio model (DAMMIN)

stoichiometry N: 2
Substance: haloalkane dehalogenase DmmarA from Mycobacterium marinum M (enzyme)
